Test results from paper PMC11054337 (2024).

Tests used:
[1] = molecular target: T1, phosphofructokinase PTS1 peptide (Leishmania donovani); assay: fluorescence polarization
[2] = molecular target: T2, xanthine phosphoribosyltransferase PTS1 peptide (Leishmania donovani); assay: fluorescence polarization
[3] = molecular target: T3, galactokinase PTS1 peptide (Leishmania donovani); assay: fluorescence polarization
[4] = molecular target: T1, phosphofructokinase PTS1 peptide; assay: fluorescence polarization competition
[5] = molecular target: T2, xanthine phosphoribosyltransferase PTS1 …; assay: fluorescence polarization competition
[6] = molecular target: T3, galactokinase PTS1 peptide; assay: fluorescence polarization competition

B1: PEX5 303-625 (protein)
chain: RLQKVTNSTDYPFEPNNPYMFHDFPFDEGMEMLQLGNLAEAALAFEAVCHKDSSNEKAWQILGTTQAENEKDGLAIIALNNARKLNPRNLEVHAALSVSHTNERNADAAMDSLKAWLVNHPEYEQLASVSIPPNAELDVQETFFFADPSRMREARTLYEAAIEMNPSDSQLFTNLGVLHNVAHEFDEAAECFRKAVALHPDDPKMWNKLGATLANGGHPDQALEAYNRALDINPGYVRAMYNMAVAYSNMSQYNMAARQIVKAIASQQGGTKPSGEGSIMATRNMWDLLRMTLNLMDRDDLVQLTYNEQLEPFVKEFGLEGHV
Kd [1]: 102 nM | Kd [2]: 78 nM | Kd [3]: 382 nM | IC50 [4]: > 60000 nM | IC50 [5]: 3610 nM | IC50 [6]: 10600 nM
